No end group written: not given here. fluorescein = fluorescein attached to the C-terminus
Key:
[1] = molecular target: T1, GST-UBR2 fusion protein (GST-Ubr-box of Ubr2) (human); assay: fluorescence polarization, GST-Ubr-box titrated into 9 nM tracer
T1 construct: GST fusion used as such in the FP assay

GST-Ubr-box of Ubr5 = molecular target: T2, GST-Ubr-box of Ubr5 (UniProt O95071 1177-1245); assay: as above
T2 construct: domain: Ubr-box; not shown: glutathione S-transferase (GST) tag
T2 sequence (looked up): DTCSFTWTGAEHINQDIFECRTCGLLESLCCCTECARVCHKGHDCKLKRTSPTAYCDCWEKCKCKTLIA

GST-Ubr-box of Ubr4 = molecular target: T3, GST-Ubr-box of Ubr4 (UniProt Q5T4S7 1656-1729); assay: as above
T3 construct: domain: Ubr-box; not shown: glutathione S-transferase (GST) tag

[2] = molecular target: T4, GST-UBR1 fusion protein (GST-Ubr-box of Ubr1) (human); assay: as above
T4 construct: GST fusion used as such in the FP assay

[3] = molecular target: T5, Purified GST (glutathione S-transferase) (UniProt P08515 1-218 = GST); assay: fluorescence polarization, GST titrated into 9 nM tracer
T5 construct: Control protein in the FP assay; also called GST alone
Description: The FP assay uses a tetrapeptide with a sequence arginine-isoleucine-phenylalanine-serine (RIFS) with fluorescein attached to the C-terminus as tracer that was previously shown to bind to the Ubr-boxes of Ubr1 and Ubr2 with similar binding affinity. Assays were developed in 384-well plates, which were read on a Clariostar Reader. Signal-to-background ratio (S/B) was optimized by varying concentrations of GST-Ubr-box and tracer concentrations. GST-fusion proteins were used due to its larger size than Ubr-box alone to increase the FP effect. […] The optimized condition includes receptor concentration [GST-UBR1]=2 μM, tracer concentration [tracer]=9 nM, and the highest concentration of unlabeled peptidomimetic compound competitors at 200 μM with 3× serial dilutions.

T3 sequence (Q5T4S7 1656-1729): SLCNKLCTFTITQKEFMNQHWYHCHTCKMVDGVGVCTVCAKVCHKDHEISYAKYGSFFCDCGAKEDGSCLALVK
T1 sequence (chain, as listed by the source limits assumed): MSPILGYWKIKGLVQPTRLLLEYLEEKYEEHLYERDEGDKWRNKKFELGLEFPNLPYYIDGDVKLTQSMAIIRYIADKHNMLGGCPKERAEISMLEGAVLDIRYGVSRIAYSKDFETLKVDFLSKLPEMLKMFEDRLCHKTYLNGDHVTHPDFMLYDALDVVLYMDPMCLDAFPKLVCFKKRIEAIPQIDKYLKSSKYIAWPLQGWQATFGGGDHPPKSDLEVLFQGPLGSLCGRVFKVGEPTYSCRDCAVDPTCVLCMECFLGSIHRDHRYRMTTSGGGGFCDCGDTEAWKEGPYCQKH
T5 sequence (P08515 whole entry): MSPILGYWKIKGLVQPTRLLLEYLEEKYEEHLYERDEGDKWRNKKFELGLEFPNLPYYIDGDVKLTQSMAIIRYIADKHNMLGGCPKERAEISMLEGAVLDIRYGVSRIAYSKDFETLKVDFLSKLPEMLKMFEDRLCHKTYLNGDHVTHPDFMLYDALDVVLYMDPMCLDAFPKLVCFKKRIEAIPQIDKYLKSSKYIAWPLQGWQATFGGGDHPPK
T4 sequence (chain, as listed by the source limits assumed): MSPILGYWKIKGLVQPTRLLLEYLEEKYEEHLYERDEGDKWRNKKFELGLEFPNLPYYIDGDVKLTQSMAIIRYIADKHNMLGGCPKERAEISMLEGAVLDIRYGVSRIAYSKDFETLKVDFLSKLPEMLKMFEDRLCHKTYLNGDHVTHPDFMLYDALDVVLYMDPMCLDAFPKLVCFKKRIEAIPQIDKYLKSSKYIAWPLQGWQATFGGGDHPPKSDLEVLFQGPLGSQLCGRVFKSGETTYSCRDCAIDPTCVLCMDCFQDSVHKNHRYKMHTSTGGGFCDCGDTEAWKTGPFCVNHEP

B1: tetrapeptide arginine-isoleucine-phenylalanine-serine (RIFS) with fluorescein attached to the C-terminus (peptide)
peptide: RIFS-fluorescein
notes: FP tracer, used at 9 nM; also called tracer
binding result [1]: binds | binding result (GST-Ubr-box of Ubr5): no binding | binding result (GST-Ubr-box of Ubr4): no binding | binding result [2]: binds | binding result [3]: no binding
